For 1 molecule, Kd results are on record in patent US20250236682A1 (published 2025).

In this experiment the target is human FcγRIIIA (176V isoform, R&D systems, 4325-FC) (human, UniProt P08637 17-208). In words: BLI.
Sequence of human FcγRIIIA (176V isoform, R&D systems, 4325-FC) (P08637 17-208 F176V): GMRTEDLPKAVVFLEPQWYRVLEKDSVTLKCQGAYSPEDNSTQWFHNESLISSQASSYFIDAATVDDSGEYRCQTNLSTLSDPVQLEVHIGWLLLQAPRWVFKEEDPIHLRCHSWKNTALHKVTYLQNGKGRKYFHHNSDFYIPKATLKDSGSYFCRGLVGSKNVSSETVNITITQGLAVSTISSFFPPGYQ

B1: H01DE4 (antibody)
heavy: not shown
light: not shown
chain: DKTHTCPPCPAPELLGGPDVFLFPPKPKDTLMISRTPEVTCVVVDVSHEDPEVKFNWYVDGVEVHNAKTKPREEQYNSTYRVVSVLTVLHQDWLNGKEYKCKVSNKALPAPEEKTISKAKGQPREPQVCTLPPSREEMTKNQVSLSCAVKGFYPSDIAVEWESNGQPENNYKTTPPVLDSDGSFFLVSKLTVDKSRWQQGNVFSCSVMHEALHNHYTQKSLSLSPGK
Molecule B1 yielded a Kd of 0.11 nM.
